Legend:
Assay in all cases: BLI; Octet RED96; client biotinylated and loaded on streptavidin sensors; Spy or Spy variant in solution at 0.25, 0.5, 1, 1.5 and 2 μM; 40 mM HEPES, 150 mM NaCl, pH 7.5; Kd calculated as koff/kon
Settings in all cases: both partners purified
[1] = target: T1, Spy wild type (Spy_(1-138)) (UniProt P77754 24-161)
T1 construct: Spy, ATP-independent periplasmic chaperone; also called WT; wt; source: E. coli BL21 (DE3), purified (Ni-NTA, cation exchange, SEC); not shown: His6, N-terminal, cleaved; SUMO, N-terminal, cleaved
T1 sequence (looked up): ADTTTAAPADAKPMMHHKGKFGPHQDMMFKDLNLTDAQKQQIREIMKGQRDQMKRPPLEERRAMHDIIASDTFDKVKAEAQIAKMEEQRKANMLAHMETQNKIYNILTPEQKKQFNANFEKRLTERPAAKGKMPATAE
Method in brief: (§1)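 Biolayer interferometry used an Octet RED96: client proteins biotinylated with EZ-link NHS-biotin (1:1 molar ratio) were loaded on streptavidin sensors, dipped into 40 mM HEPES, 150 mM NaCl, pH 7.5 containing Spy protein at 0.25, 0.5, 1, 1.5 and 2 μM, then moved to Spy-free buffer. Wavelength-shift association and dissociation curves were fitted in SigmaPlot 12.0, giving observed association rate and koff. kon came from observed rate versus Spy concentration; Kd was koff/kon.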

Spy_(27-124) = target: T2, Spy_(27-124) (UniProt P77754 50-147)
T2 construct: source: E. coli BL21 (DE3), purified (Ni-NTA, cation exchange, SEC); not shown: His6, N-terminal, cleaved; SUMO, N-terminal, cleaved
T2 sequence (looked up): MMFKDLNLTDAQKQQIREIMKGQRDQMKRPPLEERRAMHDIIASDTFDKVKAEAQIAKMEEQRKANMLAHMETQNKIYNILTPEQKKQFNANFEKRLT
Method in brief: as §1

Spy_(29-130) = target: T3, Spy_(29-130) (UniProt P77754 52-153)
T3 construct: Spy chaperone, residues 29-130; source: E. coli BL21 (DE3), purified (Ni-NTA, cation exchange, SEC); not shown: His6, N-terminal, cleaved; SUMO, N-terminal, cleaved
T3 sequence (looked up): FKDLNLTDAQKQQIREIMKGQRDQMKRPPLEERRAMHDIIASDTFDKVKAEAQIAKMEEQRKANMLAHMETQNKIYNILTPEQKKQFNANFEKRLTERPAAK
Method in brief: as §1

Spy_(29-124) = target: T4, Spy_(29-124) (UniProt P77754 52-147)
T4 construct: also called termini-free Spy; source: E. coli BL21 (DE3), purified (Ni-NTA, cation exchange, SEC); not shown: His6, N-terminal, cleaved; SUMO, N-terminal, cleaved
T4 sequence (looked up): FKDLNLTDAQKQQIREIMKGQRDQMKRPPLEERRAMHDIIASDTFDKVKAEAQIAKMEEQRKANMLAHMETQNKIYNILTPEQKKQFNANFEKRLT
Method in brief: as §1

Spy_(21-130) = target: T5, Spy_(21-130) (UniProt P77754 44-153)
T5 construct: Spy chaperone, residues 21-130; source: E. coli BL21 (DE3), purified (Ni-NTA, cation exchange, SEC); not shown: His6, N-terminal, cleaved; SUMO, N-terminal, cleaved
T5 sequence (looked up): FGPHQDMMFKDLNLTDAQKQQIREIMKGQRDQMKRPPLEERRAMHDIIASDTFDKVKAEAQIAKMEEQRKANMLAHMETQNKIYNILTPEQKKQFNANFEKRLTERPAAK
Method in brief: as §1

Spy_(21-127) = target: T6, Spy_(21-127) (UniProt P77754 44-150)
T6 construct: Spy chaperone, residues 21-127; source: E. coli BL21 (DE3), purified (Ni-NTA, cation exchange, SEC); not shown: His6, N-terminal, cleaved; SUMO, N-terminal, cleaved
T6 sequence (looked up): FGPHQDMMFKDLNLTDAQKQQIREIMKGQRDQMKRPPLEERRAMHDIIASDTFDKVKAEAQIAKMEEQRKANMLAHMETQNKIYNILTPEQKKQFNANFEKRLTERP
Method in brief: as §1

Spy_(21-124) = target: T7, Spy_(21-124) (UniProt P77754 44-147)
T7 construct: source: E. coli BL21 (DE3), purified (Ni-NTA, cation exchange, SEC); not shown: His6, N-terminal, cleaved; SUMO, N-terminal, cleaved
T7 sequence (looked up): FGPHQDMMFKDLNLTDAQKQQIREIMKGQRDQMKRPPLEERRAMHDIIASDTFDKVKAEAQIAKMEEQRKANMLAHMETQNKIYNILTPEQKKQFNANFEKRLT
Method in brief: as §1

Spy_(24-124) = target: T8, Spy_(24-124) (UniProt P77754 47-147)
T8 construct: source: E. coli BL21 (DE3), purified (Ni-NTA, cation exchange, SEC); not shown: His6, N-terminal, cleaved; SUMO, N-terminal, cleaved
T8 sequence (looked up): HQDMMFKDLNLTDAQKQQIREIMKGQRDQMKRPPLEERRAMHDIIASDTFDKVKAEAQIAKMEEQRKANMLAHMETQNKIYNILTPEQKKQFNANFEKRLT
Method in brief: as §1

B1: Im7 H40W L53A I54A (natural protein)
chain: MELKNSISDYTEAEFVQLLKEIEKENVAATDDVLDVLLEWFVKITEHPDGTDAAYYPSDNRDDSPEGIVKEIKEWRAANGKPGFKQG
modifications: biotin (EZ-link NHS-biotin, 1:1 molar ratio of biotin to protein)
notes: Im7 (colicin E7 immunity protein) with H40W L53A I54A; Spy was made with an N-terminal His6-SUMO tag that was cleaved; also called Im7AAW; partially folded client; source: purified by a similar procedure to Spy
- koff [1]: 0.179 s⁻¹
- koff (Spy_(27-124)): 0.089 s⁻¹
- koff (Spy_(29-130)): 0.0937 s⁻¹
- koff (Spy_(29-124)): 0.089 s⁻¹
- koff (Spy_(21-130)): 0.461 s⁻¹
- koff (Spy_(21-127)): 0.512 s⁻¹
- koff (Spy_(21-124)): 0.487 s⁻¹
- koff (Spy_(24-124)): 0.423 s⁻¹
